Test: yeast display, Sf9 membrane polyspecificity reagent, FACS + sequencing; frameworks hold sequencing errors
Outline: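 Nanobodies from a synthetic yeast display library (Saccharomyces cerevisiae BJ5465), induced 36–48 hours with galactose, were stained 1 hour at 4 °C with 10% biotinylated, detergent-solubilized Sf9 membrane reagent, enriched on streptavidin microbeads, then FACS-sorted. Anti-HA (expression) and streptavidin (reagent binding) fluorescence set low and high (top ~1%) gates. Polyreactivity labels come from the gate of origin. Genes were colony-PCR amplified, MiSeq 2 × 250 sequenced and filtered by CDR length.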

| Sequence | polyreactivity (PSR sort gate) |
| --- | --- |
| QVQLVESGGGLVQAGGSLRLSCAASARIFYAYTMGWYRQAPGKERELVAAISGSGSTYYADSVKGRFTISRDNAMNTFFLQMNSLKPEDTAVYYCAADVTGGRKYDYWGQGTEVTVSS | low polyreactivity |
| QVQLVESGGGLVQAGGSLRLSCAASGSTFQFNAMGWYRQAPGKEREFVAAITSSAGRTYYADSVKGRFTISRDNAKNTVYLQMNSLKPEDTAVYYCAATFYRRYVDLGYWGQGTQVTVSS | high polyreactivity |
| QVQLVESGGGLVQAGGSLRLSCAASGRISPKNAMGWNTQAPGKERELVATIRKIGGRTYYADSVKGRFTISRDNAKNTVYLQMNSLKPEDTAVYYCATDFAPSYYPDRFDYWGQGTQVTVSS | low polyreactivity |
| QVQHVESGEGLVQAGGSLRLSCAASGSIFAGYAMGWYRQAPGKERELVAAITSSGGSTYYADSVKGRFTISRDNAKNTVYLQMNSLKPEDTAVYYCAKDKLIFYRVGSDYWGQGTQVTVSS | low polyreactivity |
| QVQLVESGGRLVQAGGSLRLSCAASGFIYTPNTMGWYRQAHRKERELVAAITTNGGRTYYADSVKGRFTISRDNAKNTVYFQMNSVKPEDTAVYYCAARYVSSFGLHAQVWSYYYWGLGTQVTVSS | high polyreactivity |
| QVQLVESGGGLVQAGGSLRLSCAASGFTFAWYTMGWYRQAPGKERELVAGIDWSGGSTYYADSVKGRFTISRDNAKNTVYLQMNSLKPEDTAVYYCNAAGLYYVYPGYDYWGQGTQVTVSS | high polyreactivity |
| QVQLQESGGLVQAGGLRLSCEASGSVSYQEGMGWYRQATGKERELVATISFGANTNYADSVKGRFTISRDNAKNTVYLQMNSLKTEDTAVFYCAADSLFDDYYGYWGQGTQVTVSS | low polyreactivity |
| QVQLVESGGGLVQAGGSLRLSCAASGRTFGSYAMGWYRQAPGKERELVAAISKGGGSTYYADSVKGRFTISRDNAKNTVYLQMNSLKPEDTAVYYCAKRRFEYYYYWGQGTQVTVSS | high polyreactivity |
| QVQLVESGGGLVQAGGSLRLSCAASGSTFSVYTMGWYRQAPGKERELVATISGGGSTYYADSVKGRFTISRDNAKNTVYLQMNSLKPEDTAVYYCNAQGYGIFTSSLDYWGQGTQVTVSS | low polyreactivity |
| QVQLVESGGGLVQAGGSLRLSCAASGSTFQPYAMGWYRQAPGKEREFVATISGSAGSTYYADSVKGRFKISRDNAKNTVYLQMNSLKPEDTAVYYCNADSGWFGYDYWGQGTQVTVSS | low polyreactivity |
| QVQLVESGGGLVQAGGSLRLSCAASGFIIGSYAMGWYRQAPGTERELVAAITRSGGNTYYADSVKGRFTISRDNAKNTVYLQMNSLKPEDTAVYYCAAYSGYWYDYWGQGTQVTVSS | high polyreactivity |
| QVQLVESGGGLVQAGGSLRLSCAASGSIFTSYAMVWYRQAPGKERELVAAITSGGSTYYAHSVKGRFTISRDNAKKTVYLLMNSLKPEDTAVYYCAALQVRTSKLHMGYWGQGTQVTVSS | low polyreactivity |
| QVQLVESGGGLVQAGGSLRLSCAASGSIFTPYAMGWSRQAPGKLRELVADISRSGSTNYADSVKGRFTISRDNAKNTVYLQMNSLKPEDTAVYYCNADFWWHWGTSYVYWGQGTQVTVSS | high polyreactivity |
| QVQLEESGGGLVQAGGSLRLSCAASGITFVTYAMGWYRQAPGKERELVAAISRSGGRTYYADSVKGRFTISRDNAKNTVYLQMNSLKPEDTAVYYCAAERKNKYDYWGQGTQVTVSS | high polyreactivity |
| QVQLVESGGGLVQAGGSLRLSCAASGYTFGSNTMGWYRQAPGKERELVAVITWSGGSTYYADSVKGRFTISRDNAKNTVYLQMNSLKPEDTAVYYCAADATSPLTWFDYWGQGTQVTVSS | low polyreactivity |
| QDQLVESGGGLVQAGGSLRLSCAPSGFIFSNYAMGWYRHGPGKERELVAAISFTGSNTYYADSVKGRFTISRDYAKNTVYLKMNSLKPEDTAVYFCNAPLEWGVYAAQNWDEGYWGQGSQVTVSS | low polyreactivity |
| QVQLVESGGGLVQAGGSLRLSCAASGSTFAVNVMGWYRQAPGKERELVATITYRDGRTYYADSVKGRFTISRDNAKNTVYLQMNSLNPEDTAVYYCAADDEYKQEAEMDSWGQGTQVTVSS | low polyreactivity |
| QVQLVESGGGLVQAGGSLRLSCAASGRTIGPYAMGWYRQAPRKERELVAAISWSVGSTYYADSVKGRFTISRDNAKNTVYLQMNSLKPVDTAVYFCGAVYYSHVYYWGQGTQVTVSS | high polyreactivity |
| QVQLEESGGGLVQAGGSLRLSCAASGRIFQYYVRGWYRQAPGKERELVAAITRRGTNTYYADSVKGRFTISRDNAKNTVYLQMHSLNPEETAVYYCAATYYWSGYPVKTTSDYWGQGTQITVSS | high polyreactivity |
| QVQLVESGGGLVQAGGSLRLSCAASGSTSLGYAMGWYRQAPGKERELVASISWTGGGTYYADSVKGRFTLSRDNAKNTVYLQMNSLKPDDTAVYYCAADLTGYHPYIYGYWGQGTQVTVSS | low polyreactivity |
| QVQLVESGGGLVQAGGSLRLSCAASGRIFDGNAMGWYRQAPGKERELVAAISRIGGTYYADSVKGRFTISRDNAKNTVYLQMNSLKPEDTAVYYCAADPSSVGYHVEYDYWGQGTQVTVSS | low polyreactivity |
| QVQLVESGGGFVQAGGSLRLTCAASALTFQYNAMGWYRQAPGKETELVAAISRSGGRTYYADSVKGRFTISRDNAKNTVYLQMNSLKPEDTAVYYCARRGGVVYSSGYNYLGQGTQVTVSS | high polyreactivity |

| Sequence | polyreactivity (PSR sort gate) |
| --- | --- |
| QVQLVESGGGLVQAGGRLRISCAASGSTFYFNAMGWYRQAPGKERELVAAITRGGSTYADSVKGRFTISRDNAKYTVYLQMNSMKPEDTAVYYCNAVYGVYDFIYWGQGTQVTVSS | low polyreactivity |
| QVQLVESGGGVVQAGGSLRLSCAASGRIFGPYTMGWYRQAPGKERELVARISRRGGSTYYADSVKGRFTISRDNAKNTVYLQMNSLKPEDTAVYYCARSQAVYDGWFAKFGYWGQGTQVTVSS | low polyreactivity |
| QVQLVESGGGLVQAGGSLRLSCAASGSTFYVNDMGRYRQAPGNERELVAAITWGVGDTYYADSVKGRFTISRDNAKNTVYLQMNSQKPEDTAVYYCAADTSYYYAYTQMEYWGQGTQVTVSS | low polyreactivity |
| QVQLVESGGGLVKARGSLRLSFAASGSTFLVYAMGWYRQAPGKEREFVAAITWSGGYTYYADSVKGRFTISRDNAKNTVYLQMNSLKPEDTSVYYSAAEIQRTYSWEYPYEMYWGQGTQVTVSS | high polyreactivity |
| QVQLVESGGGLVQAGGSLRLSCAASGSIFDINAMGWYRQAPGKERELVADISWSGGRTYYADSVKGRFTISRDNAKNTVYLQMNSLKPEDTAVYYCNAQDSRFWYAEYDYWGQGNQVTVSS | low polyreactivity |
| QVQLVESGGGLVQAGGSLRLSCAASGSTFGYYAMGWYRQAPGKERELVAAITGRGGSTYYADSVKGRFTISRDNAKNTVYLQMNSLKPEDTAVYYCAVGKYRLYYSGAYGYWGQGTQVTVSS | high polyreactivity |
| QLQLVESLRGLVQAGGSLRLSCAASVSIIGPNAMGLYRQATGKERELVAAITLSGGSTYYADSVKGRFTISRDNAKNTVYLQMNSLKPEDTAVYYCNADLLPADAPLWVTGGDYWGQGTQVTESS | low polyreactivity |
| QVQLQESGGGLVQAGGCLSCTSSGTIFGQGDMGWYRQAPGKERELVATINDGASTYYADSVKGRFTISRDTAKNSVYLQKNSLKPDDTAVYYCAVFTDITTYFGYWGQGTQVTVSS | low polyreactivity |
| QVQLVESGGGLVQAGGSLRLSCAASGRIFRSYAMGWYRQAPGKERELVAAISRSGGSTYYADSVKGRFTISRDNAKNTVYLQMNSLKPEDTAVYYCAGVYTYPLGYYHYTYDYWGQGTQVTVSS | low polyreactivity |
| QVQLVESGGGLVQARGSLRLSCAASGITFNRYVMGWYRQAPGKERELVAAISRTGGSTYYADSVKGRFTISRDNAKNTDFLQMNSLKPEDTAVYYCAAATSPGIYDYWGQGTQVTVSS | high polyreactivity |
| QVQHVESGGGLVQAGGSLRLSCAASGSIFVYYAMGGYRQAPGKERELVAAISRSGGNTYYADSVKGRFTISRDNAKNTVYLQMNSLKPEDTAVYYCAAQPYVEGTKRYYWGQGTQVTVSS | high polyreactivity |
| QVQLVESGGGLVQAGGSLRLSCAASGSIFGANTMGWYRQAPGKERELGAAISKRGGSTYYADSVKGRFTISRDNAKNTVYLQMNSLKPEDTAVYYCNATPRYLRQYVDPNWGYDYWGQGTQVTVSS | low polyreactivity |
| QVKLVESGGGLVQAGGSLRLSFDASGSTFYFYAMGLYRQDPGKETEFFAAITQSGGSTNYADSVKGRFTISRDKAKNTVYLQMNSLKPEDTAVYYCSAREWRSFDYWGQGTQVTVSS | low polyreactivity |
| QVQLVESGGGLVQAGGSLRLSCAASGFIFSTNAMGWYRQAPGKERELVATIRSGGSTNYADSVKGRFTISRDNAKNTVYLQMNSLKPEDTAVYYCAAEPPGSTYEGGYWGQGTQVTVSS | low polyreactivity |
| QVQLVESGGGLVQAGGSLRLSCAASGSTFLGNAMGWYRQAPGKEREFVAAITVSGGSTYYADSVKGRFTISRDNAKNTVYLQMNSLKPEDTAVYYCAARYLRYSSKTIQNEDYWGQVTQVTVSS | high polyreactivity |
| QVQLVESGGGLVQAGGSLRLSCAASGSTFGFNAMGWYRPAPGKERELVAAINESGGDTYYADSVKGRFTISRDNAKNTVYLQMNSLKPEDTAVYYCAADEPSSVYGILVELEYWGQGTQVTVSS | high polyreactivity |
| QVQLVESGGGLVQAGGSLRLSCAASGRIFDYNAMRRYRQAPGKERELVAAINSGGSTYADSVKGRFTISRDNAKNTVYLQMNSLKPEDTGVYDCAKSLGQTVWEYDSWGQGTQVTVSS | low polyreactivity |
| QVQLEESGGGLVQAGGSLRLSCAASGNIFYYYAMGWYRQAPGKEREVVATITSGGSTNYADSVKGRFTISRDNAKNTVYLQMNSLKPEDTAVYYCAADRRRTYYWLSSYFEGYYWGQGTQVTVSS | low polyreactivity |
| QVQLVESGGGLVQAGGSHRLSCAASGFTLRYYSMGRNRPATGKERELVAPISFRGVRTYYADSVKGRFTISRDNAKNTVYLQMNSLKPEDTAVYYCAAASRRGVLYPSLPVLPDDYWGQGTQVTVSS | high polyreactivity |
| QVQLVESGGGLVQAGGSLRLSCAASGSIIVDNAMGWYRQAHGKERELVAAITDSGGRTYYADSVKGRYTISRDNAKNTVYLQMNSLKPEDTAVYYCNKQYIYTGRYSDGFDYCGQGTQVTVSS | low polyreactivity |
| QVQLQESGGGLVQACGSLRLSCAASGYIFSHQYMGWYRQAPGKERELVASISPGATTNYADSVKGRFTISRDNAKNTVYLQMNSLKPEDTAVYYYAVQTPDVIRHFYWGQGTQVTVSS | high polyreactivity |

From the nanobody polyreactivity screen of Harvey et al. (2022)
